Experimental data taken from the Immune Epitope Database (IEDB).

Tests used:
HLA-A*26:01 = assay: IEDB peptide-MHC binding, purified MHC/competitive/radioactivity; filed as Kd, often an IC50 or EC50 that approximates it; ≥ and ≤ were set here for values at or beyond the usual limits of such assays
HLA-A*23:01 = assay: as above
HLA-A*24:02 = assay: as above
HLA-A*29:02 = assay: as above
HLA-A*30:02 = assay: as above
HLA-A*01:01 = assay: as above
HLA-A*02:06 = assay: as above
HLA-A*30:01 = assay: as above
HLA-B*44:02 = assay: as above; settings: source organism: Dengue virus 3 Martinique/1243/1999
HLA-A*02:03 = assay: as above; settings: source organism: SARS coronavirus Tor2
HLA-A*02:02 = assay: as above; settings: source organism: SARS coronavirus Tor2
HLA-A*69:01 = assay: IEDB peptide-MHC binding, purified MHC/direct/fluorescence; filed as Kd, often an IC50 or EC50 that approximates it; ≥ and ≤ were set here for values at or beyond the usual limits of such assays
HLA-A*02:01 = assay: as above
HLA-A*03:01 = assay: as above; settings: source organism: SARS-CoV1
[1] = source organism: SARS coronavirus Tor2
[2] = source organism: Dengue virus 2 Jamaica/1409/1983
[3] = source organism: Vaccinia virus WR
[4] = source organism: Dengue virus 1 Brazil/97-11/1997
[5] = source organism: Serratia proteamaculans
[6] = source organism: Mammarenavirus lassaense

In the case of FSSRMYCSFY, the Kd (HLA-A*26:01; [1]) is reported as 23 nM, the Kd (HLA-A*23:01; [1]) is reported as ≥ 42400 nM and the Kd (HLA-A*24:02; [1]) is reported as ≥ 43100 nM. It also gave a Kd (HLA-A*29:02; [1]) of 40.2 nM, a Kd (HLA-A*30:02; [1]) of 2.15 nM and a Kd (HLA-A*01:01; [1]) of 2.72 nM.
Sequence FTDENKWKS has a Kd (HLA-A*01:01; [2]) of 5260 nM.
Work on FTDPASIAA yielded a Kd (HLA-A*02:06; [2]) of 32.6 nM and a Kd (HLA-A*01:01; [2]) of 7.26 nM.
With FVSLAIDAY the Kd (HLA-A*26:01; [1]) was 1730 nM, the Kd (HLA-A*23:01; [1]) was ≥ 28800 nM and the Kd (HLA-A*24:02; [1]) was 17300 nM. The Kd (HLA-A*29:02; [1]) was 21.6 nM, the Kd (HLA-A*30:02; [1]) was 897 nM and the Kd (HLA-A*01:01; [1]) was 2450 nM.
FYTTTGIGY was tested, and the Kd (HLA-A*26:01; [1]) was 153 nM, the Kd (HLA-A*23:01; [1]) was ≥ 60600 nM and the Kd (HLA-A*24:02; [1]) was ≥ 45800 nM. For the same sequence, the Kd (HLA-A*29:02; [1]) was ≥ 46200 nM, the Kd (HLA-A*30:02; [1]) was ≥ 93800 nM and the Kd (HLA-A*01:01; [1]) was 242 nM.
For GAKIIHRYA, the Kd (HLA-A*30:01; [3]) was 118 nM.
GDNALKINW was tested, and the Kd (HLA-B*44:02) was 150 nM.
GGMLVRNPLS gave a Kd (HLA-A*30:01; [4]) of 4270 nM.
Sequence GLMWLSYFV has a Kd (HLA-A*02:06; [1]) of 0.975 nM, a Kd (HLA-A*02:03) of 0.82 nM and a Kd (HLA-A*02:02) of 0.199 nM. The Kd (HLA-A*69:01; source organism: SARS-CoV1) was 347 nM, the Kd (HLA-A*02:01; source organism: SARS-CoV1) was 3190 nM and the Kd (HLA-A*03:01) was ≥ 33000 nM.
In the case of GMPNWCVSI, the Kd (HLA-A*69:01; [5]) is reported as 3410 nM and the Kd (HLA-A*02:01; [5]) is reported as 24.7 nM.
For GVYPMSIPAT, the Kd (HLA-A*30:01; [4]) was 10400 nM.
Sequence GYISTRVEM has a Kd (HLA-A*23:01; [2]) of 1140 nM.
HEMYWISNG was tested, and the Kd (HLA-B*44:02) was 495 nM.
Sequence HLRDQSIKI has a Kd (HLA-A*30:01; [3]) of 15.2 nM.
HQYPANLFY was tested, and the Kd (HLA-A*30:01; [3]) was 50.8 nM.
For HTSSMRGVYY, the Kd (HLA-A*26:01; [1]) was 52.7 nM, the Kd (HLA-A*23:01; [1]) was ≥ 70000 nM and the Kd (HLA-A*24:02; [1]) was ≥ 46800 nM. It also gave a Kd (HLA-A*29:02; [1]) of 17.8 nM, a Kd (HLA-A*30:02; [1]) of 3.4 nM and a Kd (HLA-A*01:01; [1]) of 58.5 nM.
Work on HVFQEYRLK yielded a Kd (HLA-A*30:01; [3]) of 26.6 nM.
With HWPKSHTLW the Kd (HLA-A*24:02; [2]) was 1170 nM.
With ICGGTIDAY the Kd (HLA-A*26:01; [6]) was ≥ 77900 nM, the Kd (HLA-A*23:01; [6]) was ≥ 77700 nM and the Kd (HLA-A*24:02; [6]) was ≥ 77500 nM. The Kd (HLA-A*29:02; [6]) was ≥ 21800 nM, the Kd (HLA-A*30:02; [6]) was 68.6 nM and the Kd (HLA-A*01:01; [6]) was ≥ 40200 nM.
